The values below come from patent US10363323B2, “Hydrophobic modified peptides for liver specific diagnosis” (RUPRECHT-KARLS-UNIVERSITAT HEIDELBERG, priority 2011, dated 2019).

One data set relates to liver of a WAG/Rji rat. The note with it: 400 nmol/kg i.v., five minutes post injection, WAG/Rji rat bearing CC531 colon carcinoma. As for the experimental part: The rats were orthopically injected with 1×10^6 syngenic colon carcinoma cells (CC531 cells) 10 days prior to the measurements. At the day of measurement the rats received the peptide in a concentration of 400 nmol/kg body weight. During the experiments the rats were anaesthetised by isoflurane and kept at 37° C.

A further data set can be described thus: Stability in the serum. Format: in vitro ADME. The note with it: 37° C., non-inactivated human serum from healthy donors, over the indicated period. As for the experimental part:
The detection of degradation products was conducted by purification of the peptides by using HPLC affinity chromatography and subsequent radioactivity determination was performed on a gamma counter at the indicated time points. The correct mass of the radioactive peak fractions eluted from the column was confirmed by mass spectrometry (data not shown).

SMILES strings stand for the structures.

Regarding `CCCCCCCCCCCCCCCCCC(=O)N[C@@H](CCCCNC(=O)CN1CCN(CC(=O)O)CCN(CC(=O)O)CCN(CC(=O)O)CC1)C(=O)N[C@@H](CCCCNC(=O)CN1CCN(CC(=O)O)CCN(CC(=O)O)CCN(CC(=O)O)CC1)C(=O)N[C@@H](CCCCNC(=O)CN1CCN(CC(=O)O)CCN(CC(=O)O)CCN(CC(=O)O)CC1)C(=O)N[C@@H](CC(N)=O)C(=O)N[C@@H](CC(C)C)C(=O)N[C@@H](CO)C(=O)N[C@H](C(=O)N[C@@H](CO)C(=O)N[C@@H](CC(N)=O)C(=O)N1CCC[C@H]1C(=O)N[C@@H](CC(C)C)C(=O)NCC(=O)N[C@@H](Cc1ccccc1)C(=O)N[C@@H](Cc1ccccc1)C(=O)N1CCC[C@H]1C(=O)N[C@@H](CC(=O)O)C(=O)N[C@@H](Cc1c[nH]cn1)C(=O)N[C@@H](CCC(N)=O)C(=O)N[C@@H](CC(C)C)C(=O)N[C@@H](CC(=O)O)C(=O)N1CCC[C@H]1C(N)=O)[C@@H](C)O`, the “enrichment in the liver (PET image)” value in the data set on liver of a WAG/Rji rat is listed as “Specific enrichment”. In addition, the “degradation in non-inactivated human serum (HPLC, gamma counter)” value in “Stability in the serum” was “Only radioactive decay but no cleavage was observed”.
